Results as given in paper doi:10.1101/2025.02.18.638599.

Biological target: AcrA S273C (Escherichia coli) (UniProt P0AE06)
Assay: cryo-EM structure

stoichiometry N: 6
Substance: AcrA S273C (from UniProt P0AE06 25-397) (natural protein)
